According to the supplement of paper PMC7877785:
± gives the uncertainty stated by the source.

Assay: self-splicing fitness, log relative to wild type (ln ratio); higher = more splicing; Tetrahymena group I intron in knt gene, E. coli kanamycin selection, DiMSum; sequences stand for … in CUCUCU…GGAGGGAAAAGUUAUCAGGCAUGCACCUGGUAGCUAGUCUUUAAACCAAUAGAUUGCAUCGGUUUAAAAGGCAAGACCGUCAAAUUGCGGGAAAGGGGUCAACAGCCGUUCAGUACCAAGUCUCAGGGGAAACUUUGAGAUGGCCUUGCAAAGGGUAUGGUAAUAAGCUGACGGACAUGGUCCUAACCACGCAGCCAAGUCCUAAGUCAACAGAUCUUCUGUUGAUAUGGAUGCAGUUCACAGACUAAAUGUCGGUCGGGGAAGAUGUAUUCUUCUCAUAAGAUAUAGUCGGACCUCUCCUUAAUGGGAGCUAGCGGAUGAAGUGAUGCAACACUGGAGCCGCUGGGAACUAAUUUGUAUGCGAAAGUAUAUUGAUUAGUUUUGGAGUACUCGUGGUCG
How it was run: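 A randomised library covering all eight P1ex-region intron nucleotides was built with the intron in the knt kanamycin-resistance gene on pET-22b(+) and held in E. coli BL21(DE3). Cells were grown overnight at 37°C or 30°C on LB agar, with or without 25 μg/mL kanamycin, plus 100 μg/mL carbenicillin, 50 μM IPTG and 0.2% rhamnose, and pooled colonies were amplicon-sequenced on an Illumina HiSeq 2500. DiMSum fitness is the error-weighted combination of wild-type-normalised replicate fold changes, kanamycin versus none.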

Sequence	self-splicing fitness (ln) (30 °C)	self-splicing fitness (ln) (37 °C)
AGGAAGCAAUAUUACGGCAG	-2.3 ± 0.31	-0.552 ± 0.32
AGGAAGCAAUAUUACGGGCG	-0.564 ± 0.11	-0.865 ± 0.15
AGGAAGCAAUAUUACGUAAU	-0.858 ± 0.14	-1.42 ± 0.18
AGGAAGCAAUAUUACGUCGG	-2.61 ± 0.15	-1.13 ± 0.15
AGGAAGCAAUAUUACGUGAG	-0.821 ± 0.1	-1.57 ± 0.14
AGGAAGCAAUAUUACGUGCA	-1.12 ± 0.11	-1.32 ± 0.13
AGGAAGCAAUAUUACGUGGG	-4.36 ± 0.31	-3.38 ± 0.23
AGGAAGCAAUAUUACGUGUA	-2.06 ± 0.1	-0.914 ± 0.085
AGGAAGCAAUAUUACGUUCA	-0.532 ± 0.13	-1.05 ± 0.21
AGGCAGCAAUAUUACGAAUA	-2.67 ± 0.25	-2.08 ± 0.22
AGGCAGCAAUAUUACGAUCG	-0.369 ± 0.077	0.135 ± 0.093
AGGCAGCAAUAUUACGCAAG	-1.22 ± 0.072	-0.387 ± 0.098
AGGCAGCAAUAUUACGCCGU	-1.92 ± 0.19	-0.237 ± 0.17
AGGCAGCAAUAUUACGCGUU	-2.29 ± 0.12	-0.692 ± 0.11
AGGCAGCAAUAUUACGGAAC	-4.21 ± 0.47	-2.29 ± 0.36
AGGCAGCAAUAUUACGGACC	-0.728 ± 0.14	-0.53 ± 0.18
AGGCAGCAAUAUUACGGAGG	-4.29 ± 0.26	-2.66 ± 0.25
AGGCAGCAAUAUUACGGCUA	-0.132 ± 0.069	-0.399 ± 0.078
AGGCAGCAAUAUUACGGGAU	-2.85 ± 0.16	-1.39 ± 0.14
AGGCAGCAAUAUUACGGGGU	-3.54 ± 0.21	-3.25 ± 0.37
AGGCAGCAAUAUUACGGUUC	-1.43 ± 0.14	-1.8 ± 0.19
AGGCAGCAAUAUUACGUAGC	-2.64 ± 0.23	-1.29 ± 0.17
AGGCAGCAAUAUUACGUAGG	-2.04 ± 0.083	-1.64 ± 0.12
AGGCAGCAAUAUUACGUCCU	-3.02 ± 0.26	-1.29 ± 0.37
AGGCAGCAAUAUUACGUCGG	-0.675 ± 0.08	-0.941 ± 0.09

Sequence	self-splicing fitness (ln) (30 °C)	self-splicing fitness (ln) (37 °C)
AGGCAGCAAUAUUACGUCGU	-0.986 ± 0.058	-0.962 ± 0.088
AGGCAGCAAUAUUACGUCUG	-2.66 ± 0.15	-1.51 ± 0.15
AGGCAGCAAUAUUACGUGAA	-1.12 ± 0.07	-0.932 ± 0.11
AGGGAGCAAUAUUACGAACC	-1.52 ± 0.23	-1.48 ± 0.29
AGGGAGCAAUAUUACGAGCG	-2.94 ± 0.47	-0.874 ± 0.43
AGGGAGCAAUAUUACGCAAU	–	-1.7 ± 0.47
AGGGAGCAAUAUUACGCAGG	–	-0.965 ± 0.24
AGGGAGCAAUAUUACGCCCG	-3.31 ± 0.5	-0.737 ± 0.49
AGGGAGCAAUAUUACGCCGU	-2.11 ± 0.42	-0.233 ± 0.39
AGGGAGCAAUAUUACGCCUU	-3.04 ± 0.36	–
AGGGAGCAAUAUUACGCGCG	-1.62 ± 0.35	-1.11 ± 0.37
AGGGAGCAAUAUUACGGAUU	-4.58 ± 0.38	-2.67 ± 0.31
AGGGAGCAAUAUUACGGCGG	-2.87 ± 0.21	-2.73 ± 0.3
AGGGAGCAAUAUUACGUCAA	-3.37 ± 0.44	-2.52 ± 0.45
AGGGAGCAAUAUUACGUCCU	-2.66 ± 0.29	-1.55 ± 0.24
AGGGAGCAAUAUUACGUCUU	-2.53 ± 0.15	-0.226 ± 0.15
AGGGAGCAAUAUUACGUGUU	-2.63 ± 0.31	-1.73 ± 0.29
AGGUAGCAAUAUUACGAAAG	-3.732 ± 0.036	-2.49 ± 0.045
AGGUAGCAAUAUUACGAAGA	-2.84 ± 0.03	-1.83 ± 0.038
AGGUAGCAAUAUUACGACAC	-0.582 ± 0.018	-0.427 ± 0.036
AGGUAGCAAUAUUACGACCG	-0.101 ± 0.02	0.197 ± 0.039
AGGUAGCAAUAUUACGCAAC	-3.73 ± 0.042	-2.61 ± 0.049
AGGUAGCAAUAUUACGCGCG	-0.525 ± 0.016	-0.215 ± 0.035
AGGUAGCAAUAUUACGCGGG	-3.612 ± 0.026	-2.38 ± 0.037
AGGUAGCAAUAUUACGCGUA	-1.22 ± 0.017	-0.701 ± 0.034

Sequence	self-splicing fitness (ln) (30 °C)	self-splicing fitness (ln) (37 °C)
AGGUAGCAAUAUUACGCUGC	-3.88 ± 0.042	-2.79 ± 0.054
AGGUAGCAAUAUUACGGACU	0.0184 ± 0.014	0.271 ± 0.033
AGGUAGCAAUAUUACGGCCG	-0.244 ± 0.018	0.0571 ± 0.038
AGGUAGCAAUAUUACGGGAU	-2.755 ± 0.02	-1.49 ± 0.034
AGGUAGCAAUAUUACGGGCA	-0.941 ± 0.017	-0.414 ± 0.034
AGGUAGCAAUAUUACGGGCC	-1.74 ± 0.024	-1.5 ± 0.041
AGGUAGCAAUAUUACGGGGA	-3.342 ± 0.031	-2.42 ± 0.039
AGGUAGCAAUAUUACGGGGU	-3.984 ± 0.027	-2.94 ± 0.038
AGGUAGCAAUAUUACGGGUU	-2.347 ± 0.017	-1.72 ± 0.035
AGGUAGCAAUAUUACGGUAG	-3.883 ± 0.03	-2.99 ± 0.042
AGGUAGCAAUAUUACGUAAG	-2.267 ± 0.017	-1.25 ± 0.034
AGGUAGCAAUAUUACGUACA	-0.927 ± 0.016	-0.257 ± 0.034
AGGUAGCAAUAUUACGUACG	-1.19 ± 0.015	-0.48 ± 0.034
AGGUAGCAAUAUUACGUGAU	-2.479 ± 0.016	-1.53 ± 0.034
AGGUAGCAAUAUUACGUUCG	-0.889 ± 0.014	-0.42 ± 0.034
AGGUAGCAAUAUUACGUUGG	-3.813 ± 0.028	-2.95 ± 0.041
AGUAAGCAAUAUUACGACGA	-1.15 ± 0.073	-0.782 ± 0.079
AGUAAGCAAUAUUACGAGAU	-3.09 ± 0.15	-0.575 ± 0.16
AGUAAGCAAUAUUACGAGGA	-2.06 ± 0.33	-2.55 ± 0.49
AGUAAGCAAUAUUACGAUAU	-1.95 ± 0.13	-0.493 ± 0.15
AGUAAGCAAUAUUACGAUUA	-0.948 ± 0.082	0.25 ± 0.092
AGUAAGCAAUAUUACGAUUC	-1.31 ± 0.14	-0.96 ± 0.22
AGUAAGCAAUAUUACGCAAU	-2.52 ± 0.14	-1.17 ± 0.16
AGUAAGCAAUAUUACGCACA	-0.655 ± 0.082	-0.356 ± 0.091
AGUAAGCAAUAUUACGCAGU	-4.13 ± 0.17	-2.98 ± 0.19

Sequence	self-splicing fitness (ln) (30 °C)	self-splicing fitness (ln) (37 °C)
AGUAAGCAAUAUUACGCGAU	-3.74 ± 0.18	-2.29 ± 0.18
AGUAAGCAAUAUUACGCGCU	-2.64 ± 0.28	-2.1 ± 0.4
AGUAAGCAAUAUUACGCGUG	-3.44 ± 0.2	-1.46 ± 0.16
AGUAAGCAAUAUUACGCGUU	-3.44 ± 0.17	-2.8 ± 0.19
AGUAAGCAAUAUUACGCUAA	-2.36 ± 0.17	-2.3 ± 0.19
AGUAAGCAAUAUUACGGCAU	-0.486 ± 0.11	-0.411 ± 0.12
AGUAAGCAAUAUUACGGCCA	-0.532 ± 0.14	-0.74 ± 0.16
AGUAAGCAAUAUUACGGCUA	0.0253 ± 0.081	0.0684 ± 0.094
AGUAAGCAAUAUUACGGGCU	-1.28 ± 0.12	-1.6 ± 0.17
AGUAAGCAAUAUUACGGGGA	-3.89 ± 0.31	-2.3 ± 0.3
AGUAAGCAAUAUUACGUAGG	-3.99 ± 0.19	-3.09 ± 0.22
AGUAAGCAAUAUUACGUCAG	–	-2.58 ± 0.3
AGUAAGCAAUAUUACGUGAC	–	-2.19 ± 0.2
AGUAAGCAAUAUUACGUUGA	-3.1 ± 0.23	-2.1 ± 0.24
AGUAAGCAAUAUUACGUUUC	-3.78 ± 0.23	-1.37 ± 0.21
AGUCAGCAAUAUUACGAAAC	–	-1.45 ± 0.28
AGUCAGCAAUAUUACGAAGG	-1.27 ± 0.08	-1.46 ± 0.12
AGUCAGCAAUAUUACGAAUA	-0.962 ± 0.2	-1.22 ± 0.17
AGUCAGCAAUAUUACGACAU	0.0908 ± 0.012	-0.0465 ± 0.032
AGUCAGCAAUAUUACGCAAC	-1.65 ± 0.18	-1.22 ± 0.21
AGUCAGCAAUAUUACGCAGU	-1.89 ± 0.23	-0.11 ± 0.17
AGUCAGCAAUAUUACGCAUA	-2.09 ± 0.13	-0.502 ± 0.12
